# According to patent publication US20260258115A1 (MAPP BIOPHARMACEUTICAL, published 2026):
# B1: ADI-41811 (antibody, V domains shown)
# VH: QVQLQQSGPRLVKPSHTLSLTCVISGDSVSSGSAAWSWIRQSPSRGLEWLGRTYYRSKWYYDYAVSVKGRIIIQPDTSKNQFSLQLNSVSPEDTAVYYCARDPDSGNYFHYYGMDVWGQGTTVTVSS
# VL: DIVMTQSPATLSLSPGERATLSCRASQSVDVYFAWYQQKPGQAPRLLIYDASKRASGVPARFSGSASGTDFTLTISSLEPEDFAVYYCQQRAKWPPYTFGQGTKLEIK
# B2: ADI-41570 (antibody, V domains shown)
# VH: QVQLVQSGAEVKKPGSSVKVSCMASGGTFSNSAINWVRQAPGQGLEWMGGTIPIFGAANYAQRFQARVTITADKSTSTAYMELTSLRSDDTAVYYCVRTPHRSSDHIWGSYRYFDSWGQGTLVTVSS
# VL: QSVVTQEPSVSAAPGQKITISCSGSTSNIGINYVSWYQQFPGTAPKLLIYDNDKRPSGIPDRFSGSKSGTSATLGITGLQAGDEADYYCGTWDSSLSAGHIFGGGTKVTVL
# notes: also called Ab 848; Antibody Number 848
# B3: ADI-41579 (antibody, V domains shown)
# VH: QVQLVESGAEARKPGSSVKVSCKLSGGTFSTDPISWVRQAPGQGLEWMGRIIPLLGIANYAQKFQGRVTIIADKSTSTVYMELRNLRFEDTAVYFCARRGDGYYGMDVWGQGTTVTVSS
# VL: QSVLTQPASVSGSPGQSITISCTGTSNDIGGYDYVSWYQQHPGKAPKLMIYDVHNRPSGVSNRFSGSKSGNTASLTISGLQAEDEADYYCSSFSDSGNLYVFGTGTKLTVL
# B4: ADI-41808 (antibody, V domains shown)
# VH: QVQLVQSGAELKKPGSSVRISCKVSGVTSDNYAITWVRQAPGQGLEWMGRVIPIFPVPQYAQKFQGRVTLSADKSTRTAYLELHSLRSEDTATYYCATHRPSDSWGQGTLVTVSS
# VL: DIRVTQSPSTLSASVGDRVTITCRASQNINSWLAWYQQKPGKAPKLLIFKASSLESGVPARFSGSGFGTEFTLTITSLQPDDFASYYCQQYDTYPYPFGQGTKVEIK
# notes: also called Ab 916; Antibody Number 916
# B5: ADI-41804 (antibody, V domains shown)
# VH: QVQLQQWGAGLLKPSETLSLTCSVLGGSFSGYYWTWIRQPPGKGLEWIGEITHDGSSNYNPSLNSRVTISVDTSNYQFSLKMRSVTAADTAVYYCARSPDLTIFGGLYFYYGISVWGQGTTVTVSS
# VL: DIQMTQSPSSLSASMGDRVTITCRASQDISNYLAWYQQKPGKVPNLLIYAASTLQGGVPSRFSGSGSGTDFTLTISSLQPEDVAIYYCQKYKSAPRTFGQGTKVEIK
# B6: ADI-41799 (antibody, V domains shown)
# VH: QVQLVQSGAEVKKPGSSVKVSCQASGGTFSTHALSWVRQTPGHGLEWVGGVLPVFGATKYPRKFQGRVTITADKSTNTAYMELSSLRSDDTAVYYCARVVVHSTITTAKDFFSGVHDIWGQGTMVTVSS
# VL: DIRMTQSPSTLSASVGDRVTITCRASQTVSSWLAWYQQKPGKAPKLLIYQASSLESGVPSRFSGSGSGTEFTLTISGLQPDDFATYFCQHYNSYSPVTFGGGTKVEIK
# notes: also called Ab 910; Antibody Number 910
# B7: ADI-41557 (antibody, V domains shown)
# VH: EVQLLESGPGLVKPSETLSLTCNVSGGSISSYYWSWIRQSPGKGLEWIGHIYDTGYTNYNPSLKSRVTMSVDTSKNRFSLKLDSVTAADTAVYYCARGRGWRNLYNWFDPWGQGTLVTVSS
# VL: DIVMTQSPATLSVSPGERATLSCRTSQSFSSMLAWYQQKPGQAPRLLIYGASTRATGIPARFSGSGSATEFTLTISNLQSEDVAVYYCQQYNSWPLTFGGGTKVEIK
# notes: also called Ab 839; Antibody Number 839
# B8: ADI-41554 (antibody, V domains shown)
# VH: EVQLVESGGGLVQPGGSLRLSCAASGFTFSSYPMNWVRQGPGKGLEWVSSISSSGASPYYADSVKGRFTISRDNSKNTLYLQMNSLRADDTAVYYCAREDYYYYYMDVWGKGTTVTVSS
# VL: ETTLTQSPSTLSASVGDRVTITCRASESISSWLAWYQQKPGKAPKLLIFKASTVQSGVPSRFSGSGSGTEFTLTISSLQPDDFATYYCQQYNSYLLTFGGGTKVEIK
# notes: also called Ab 836; Antibody Number 836
# B9: ADI-41558 (antibody, V domains shown)
# VH: EVQLLESGGGLVKPGGSLRLSCEVSGFPFSDYYVSWIRQAPGKGLEWLSYSSRGGIYTNYADSVKGRFTISRDNDKNSLFLQMNSLRAEDTAVYYCARDRSDIWSGRVGFDYWGQGTLVTVSS
# VL: DIVMTQSPATLSLSPGERATLSCRASQSVSSSYLAWYQQKPGQAPRLLIYGASSRATGIPDRFSGSGSGTDFTLTISRLEPEDFAVYYCQQYNKSPPGYIFGPGTKVDIK
# notes: also called Ab 840; Antibody Number 840
# B10: ADI-41564 (antibody, V domains shown)
# VH: QVQLVQSGAEVKKPGSSVKVSCKAFGGTLRRYALSWVRQAPGQGLEWMGGIIPVFGTRRYAQKFQGRITITADGSTSTASMEVSSLRFEDTAIYYCATVYFDFVSGPPPTYYYYYMDVWGKGTTVTVSS
# VL: DIVMTQSPGTLSLSPGERATLSCRASQSVSSSYLAWYQQKPGQAPRLLIYGASSRATGIPDRFSGSGSGTDFTLTISRLEPEDFAVYYCQQYDSSLRVLTFGGGTKVDIK
# notes: also called Ab 844; Antibody Number 844
# B11: ADI-41807 (antibody, V domains shown)
# VH: EVQLLESGPALVKPTQTLTLTCTFSGFSLTTTRMSVSWIRQPPGKALEWLARIDWDDDKYYSTSLKTRLTISKDTSKNQVVLTMTNMDPVDTATYFCARVNVYAANGYYSYYLDYWGQGTLVTVSS
# VL: DIVMTQTPSSLSASVGDRVTITCRTSQSSSRYLNWYQKEPGKAPRLLIYLASALRSGVPSRFSGSGSGTDFTLTISSLQSEDFATYYCQQTYSIPWTFGQGTKVEIK
# B12: ADI-41552 (antibody, V domains shown)
# VH: EVQLLESGGGLVQPGGSLRLSCAASGFTFSPYSMNWVRQAPGKGLEWVSYISRSGSFKYYADSVKGRFTISRDDAKNSLYLHMNSLRDDDTAVYYCVSYCSSATCHQRFDYWGQGTLVTVSS
# VL: EIVLTQSPATLSLSPGERATLSCRASQSVNSYLAWYQQKPGQAPRLLIYDASNRATGIPARFSGSGSGTDFTLTISSLEPEDFAVYYCQERNSWPKLTFGGGTKVEIK
# B13: ADI-41569 (antibody, V domains shown)
# VH: EVQLLESGAEVKKPGSSVKVSCKASGGTFSTYAISWVRQAPGQGLEWMGGIIPVLGTTKYAQKFQDRVTITADESTSTAYMDLSGLRSDDTAVYYCARGVWGDCGRASCLFDWYFDLWGRGTLVTVSS
# VL: EIVMTQSPATLSVSPGERVTLSCSASQTVSSNLAWYQQKPGQAPRLLIYGASIRATDIPARFSGSGSRTEFTLTISSLQSEDFAVYYCQQYNNRPPLTFGGGTKVEIK
# notes: also called Ab 847; Antibody Number 847
# B14: ADI-41561 (antibody, V domains shown)
# VH: QVQLVQSGPTLVKPTQTLTLTCSFSGFSLTNTGVGVGWIRQPPGKALEWLALIYWDDDKRYRPSLKSRLTITKDTSKSQVVLTMTNMDPLDTATYYCAHRRSAYDPIYFDYWGQGALVTVSS
# VL: DIRVTQSPSSVSASVGDRVTITCRASRSINNWLAWYQQKPGKAPKLLIYAASSLQSGVPSRFSGSGYGTDFTLTISSLQPEDFATYYCQQAHSFPSITFGQGTRLEIK
# B15: ADI-41555 (antibody, V domains shown)
# VH: EVQLVESGPGLVKPSQTLSLTCSVSGGSISSGIHYWSWIRQHPGKGLEWIGYIYYSGSTYYNPSLESRITISVDTSKNQFSLKVSSVTAADTAVYYCARVNRASRMTTFGVANERSIYYFMDVWGKGTTVTVSS
# VL: ETTLTQSPATLSLSPGERATLSCRATQSVGNYLAWYQQKPGQAPRLLIHDASNRATGIPARFSGSGSGTDFTLTISSLEPEDFAVYYCQLRINWLFTFGPGTKVEIK
# B16: ADI-41803 (antibody, V domains shown)
# VH: RCTLQQWGAGRVKPSETLSLTCAVYRGPFSGYYWSWIRQPPGKGLEWIGEINLGETNPGGSTHYNPSLRSRLSMSIDTSKKQFSLRVNSVTAADTAVYYCTRGPVSRIYDTSGSYSLNYYGMDVWGQGTTVTVSS
# VL: DIRMTQSPSSLSASVGDRVTITCRASQGIRNDLGWYQQKPGRAPERLIYPASSLQGGVPSRFIASGSGTEFTLTISNLQPEDFATYYCLQHNSYPRTFGQGTKVEIK
# notes: also called Ab 912; Antibody Number 912
# B17: ADI-41581 (antibody, V domains shown)
# VH: EVQLLESGSELKKPGASVKISCKTSGYTFTNYLMNWVRQAPGQGLEWMGWINTHTGNPTYAQDFTGRFVFSLDTSVNTAYLQISSLKAEDTAIYYCARDGLEAFSGYNGVDYWGQGTLVTVSS
# VL: DIVMTQTPLSLPVTPGEPASISCRSSPSLLHSNGYNYLDWYLQKPGQSPQLLIYLGSTRASGVPDRFSGSGSGTDFTLRISRVEAEDVGVYYCMQALQIPLTFGQGTKLEIK
# notes: also called Ab 855; Antibody Number 855
# B18: ADI-41580 (antibody, V domains shown)
# VH: QVQLQQWGAGLLKPSETLSLTCAVYGGSFSGYYWSWIRQPPGKGLEWIGEMNHSGGSNYNPSFKSRVTISVDTSKKYFSLNLSSVTAADTAIYYCARTPFYYESTGYYYYYYGMDVWGQGTTVTVSS
# VL: DIVMTQTPDSLAVSLGERATINCKSSQSVSHSSNNKNYLSWYQQKPGQPPKLLIYWASIRESEAPDRFTGSGSGTDFTLTISSLQAEDVAVYYCQQYYTAPITFGQGTRLEIK
# notes: also called Ab 854; Antibody Number 854
# Assays:
# [1] = target: RSV F on RSV-A2 virus (Respiratory syncytial virus, RSV-A2, UniProt P03420 26-574); experiment: cell-based or functional assay
# [2] = target: RSV prefusion F (preF), DS-Cav1 (Respiratory syncytial virus, UniProt P03420 26-513); experiment: BLI, IgG on anti-human IgG sensor, 100 nM antigen
# [3] = target: RSV postfusion F (postF), F ΔFP (Respiratory syncytial virus, UniProt P03420 26-513); experiment: BLI, IgG on anti-human IgG sensor, 100 nM antigen
Binder,Neutralization IC50 (RSV subtype A) [1] [µg/mL],Kd [2] [nM],Kd [3] [nM]
B1,> 25,1.64,0.744
B2,25,2.97,1.12
B3,0.209,0.471,0.36
B4,> 25,13.9,22.5
B5,> 25,0.331,0.436
B6,> 25,3.28,1.1
B7,> 25,30.9,86.1
B8,> 25,1.35,1.07
B9,> 25,3.02,0.7
B10,> 25,4.44,0.596
B11,> 25,1.5,1.19
B12,> 25,3.44,0.522
B13,> 25,3.3,1.61
B14,> 25,3.33,0.516
B15,25,5.69,1.12
B16,> 25,1.99,0.711
B17,> 25,2.77,0.361
B18,1.11,2.98,1.17
